experiment: melting temperature; melt of duplexes; conditions: sodium 0.0675 M; strand 1 µM

Substance	Tm
CGACGTGCACAATGTGCTG+CAGCACATCTCGCACGTCG ((((((((...((((((((+))))))))...))))))))	45.1 °C
CGACGTGCACAATGTGCTG+CAGCACATCTGGCACGTCG ((((((((...((((((((+))))))))...))))))))	47.5 °C
CGACGTGCACAATGTGCTG+CAGCACATGAAGCACGTCG ((((((((...((((((((+))))))))...))))))))	49.9 °C
CGACGTGCACAATGTGCTG+CAGCACATGACGCACGTCG ((((((((...((((((((+))))))))...))))))))	48.2 °C
CGACGTGCACAATGTGCTG+CAGCACATGGAGCACGTCG ((((((((.(.((((((((+)))))))).).))))))))	52.5 °C
CGACGTGCACAATGTGCTG+CAGCACATGGGGCACGTCG ((((((((.(.((((((((+)))))))).).))))))))	55.2 °C
CGACGTGCACAATGTGCTG+CAGCACATGTGGCACGTCG ((((((((...((((((((+))))))))...))))))))	51.2 °C
CGACGTGCACAATGTGCTG+CAGCACATTAGGCACGTCG ((((((((..(((((((((+)))))))))..))))))))	50.6 °C
CGACGTGCACAATGTGCTG+CAGCACATTGGGCACGTCG ((((((((.((((((((((+)))))))))).))))))))	61.2 °C
CGACGTGCACAATGTGCTG+CAGCACATTGTGCACGTCG (((((((((((((((((((+)))))))))))))))))))	63 °C
CGACGTGCACAATGTGCTG+CAGCACATTTAGCACGTCG ((((((((..(((((((((+)))))))))..))))))))	48.3 °C
CGACGTGCACAATGTGCTG+CAGCACATTTGGCACGTCG ((((((((..(((((((((+)))))))))..))))))))	51.2 °C
CGACGTGCACAATGTGCTG+CAGCACATTTTGCACGTCG (((((((((.(((((((((+))))))))).)))))))))	54 °C
CGACGTGCACCATGTGCTG+CAGCACATAACGCACGTCG ((((((((...((((((((+))))))))...))))))))	43.8 °C
CGACGTGCACCATGTGCTG+CAGCACATAAGGCACGTCG ((((((((...((((((((+))))))))...))))))))	44.1 °C
CGACGTGCACCATGTGCTG+CAGCACATACGGCACGTCG ((((((((...((((((((+))))))))...))))))))	42.9 °C
CGACGTGCACCATGTGCTG+CAGCACATACTGCACGTCG (((((((((..((((((((+))))))))..)))))))))	44.9 °C
CGACGTGCACCATGTGCTG+CAGCACATCAAGCACGTCG ((((((((...((((((((+))))))))...))))))))	42.8 °C
CGACGTGCACCATGTGCTG+CAGCACATCCAGCACGTCG ((((((((...((((((((+))))))))...))))))))	42.2 °C
CGACGTGCACCATGTGCTG+CAGCACATCCGGCACGTCG ((((((((...((((((((+))))))))...))))))))	42.7 °C
CGACGTGCACCATGTGCTG+CAGCACATCGTGCACGTCG ((((((((((.((((((((+)))))))).))))))))))	49.6 °C
CGACGTGCACCATGTGCTG+CAGCACATCTGGCACGTCG ((((((((...((((((((+))))))))...))))))))	43.7 °C
CGACGTGCACCATGTGCTG+CAGCACATGAAGCACGTCG ((((((((..(((((((((+)))))))))..))))))))	51 °C
CGACGTGCACCATGTGCTG+CAGCACATGCAGCACGTCG ((((((((..(((((((((+)))))))))..))))))))	50.4 °C

Substance	Tm
CGACGTGCACCATGTGCTG+CAGCACATGCCGCACGTCG ((((((((..(((((((((+)))))))))..))))))))	48.6 °C
CGACGTGCACCATGTGCTG+CAGCACATGGAGCACGTCG ((((((((.((((((((((+)))))))))).))))))))	58.8 °C
CGACGTGCACCATGTGCTG+CAGCACATTCGGCACGTCG ((((((((...((((((((+))))))))...))))))))	42.6 °C
CGACGTGCACCATGTGCTG+CAGCACATTGAGCACGTCG ((((((((.(.((((((((+)))))))).).))))))))	47.2 °C
CGACGTGCACCATGTGCTG+CAGCACATTGCGCACGTCG ((((((((.(.((((((((+)))))))).).))))))))	46.9 °C
CGACGTGCACCATGTGCTG+CAGCACATTTAGCACGTCG ((((((((...((((((((+))))))))...))))))))	42.2 °C
CGACGTGCACCATGTGCTG+CAGCACATTTTGCACGTCG (((((((((..((((((((+))))))))..)))))))))	46.7 °C
CGACGTGCACGATGTGCTG+CAGCACATAAAGCACGTCG ((((((((...((((((((+))))))))...))))))))	46.8 °C
CGACGTGCACGATGTGCTG+CAGCACATAGGGCACGTCG ((((((((.(.((((((((+)))))))).).))))))))	54.9 °C
CGACGTGCACGATGTGCTG+CAGCACATATAGCACGTCG ((((((((...((((((((+))))))))...))))))))	45.6 °C
CGACGTGCACGATGTGCTG+CAGCACATATGGCACGTCG ((((((((...((((((((+))))))))...))))))))	46.9 °C
CGACGTGCACGATGTGCTG+CAGCACATCAAGCACGTCG ((((((((..(((((((((+)))))))))..))))))))	51.2 °C
CGACGTGCACGATGTGCTG+CAGCACATCACGCACGTCG ((((((((..(((((((((+)))))))))..))))))))	51.9 °C
CGACGTGCACGATGTGCTG+CAGCACATCAGGCACGTCG ((((((((..(((((((((+)))))))))..))))))))	53.4 °C
CGACGTGCACGATGTGCTG+CAGCACATCCAGCACGTCG ((((((((..(((((((((+)))))))))..))))))))	50.6 °C
CGACGTGCACGATGTGCTG+CAGCACATCCGGCACGTCG ((((((((..(((((((((+)))))))))..))))))))	52.4 °C
CGACGTGCACGATGTGCTG+CAGCACATCGGGCACGTCG ((((((((.((((((((((+)))))))))).))))))))	63.8 °C
CGACGTGCACGATGTGCTG+CAGCACATCGTGCACGTCG (((((((((((((((((((+)))))))))))))))))))	65.4 °C
CGACGTGCACGATGTGCTG+CAGCACATCTAGCACGTCG ((((((((..(((((((((+)))))))))..))))))))	51.3 °C
CGACGTGCACGATGTGCTG+CAGCACATCTCGCACGTCG ((((((((..(((((((((+)))))))))..))))))))	50.6 °C
CGACGTGCACGATGTGCTG+CAGCACATCTGGCACGTCG ((((((((..(((((((((+)))))))))..))))))))	53.6 °C
CGACGTGCACGATGTGCTG+CAGCACATGAAGCACGTCG ((((((((...((((((((+))))))))...))))))))	46.2 °C
CGACGTGCACGATGTGCTG+CAGCACATGCAGCACGTCG ((((((((...((((((((+))))))))...))))))))	45.9 °C
CGACGTGCACGATGTGCTG+CAGCACATGGCGCACGTCG ((((((((.(.((((((((+)))))))).).))))))))	50.2 °C

Substance	Tm
CGACGTGCACGATGTGCTG+CAGCACATGGTGCACGTCG ((((((((((.((((((((+)))))))).))))))))))	55.8 °C
CGACGTGCACGATGTGCTG+CAGCACATGTAGCACGTCG ((((((((...((((((((+))))))))...))))))))	48.7 °C
CGACGTGCACGATGTGCTG+CAGCACATGTTGCACGTCG (((((((((..((((((((+))))))))..)))))))))	49.9 °C
CGACGTGCACGATGTGCTG+CAGCACATTAAGCACGTCG ((((((((...((((((((+))))))))...))))))))	46.5 °C
CGACGTGCACGATGTGCTG+CAGCACATTCAGCACGTCG ((((((((...((((((((+))))))))...))))))))	45.5 °C
CGACGTGCACGATGTGCTG+CAGCACATTGCGCACGTCG ((((((((.(.((((((((+)))))))).).))))))))	52.1 °C
CGACGTGCACGATGTGCTG+CAGCACATTGGGCACGTCG ((((((((.(.((((((((+)))))))).).))))))))	56.4 °C
CGACGTGCACGATGTGCTG+CAGCACATTTGGCACGTCG ((((((((...((((((((+))))))))...))))))))	46.8 °C
CGACGTGCACGATGTGCTG+CAGCACATTTTGCACGTCG (((((((((..((((((((+))))))))..)))))))))	48.5 °C
CGACGTGCACTATGTGCTG+CAGCACATACAGCACGTCG ((((((((..(((((((((+)))))))))..))))))))	45.4 °C
CGACGTGCACTATGTGCTG+CAGCACATACGGCACGTCG ((((((((..(((((((((+)))))))))..))))))))	46 °C
CGACGTGCACTATGTGCTG+CAGCACATACTGCACGTCG (((((((((.(((((((((+))))))))).)))))))))	48.8 °C
CGACGTGCACTATGTGCTG+CAGCACATAGGGCACGTCG ((((((((.((((((((((+)))))))))).))))))))	58.9 °C
CGACGTGCACTATGTGCTG+CAGCACATATTGCACGTCG (((((((((.(((((((((+))))))))).)))))))))	51.5 °C
CGACGTGCACTATGTGCTG+CAGCACATCACGCACGTCG ((((((((...((((((((+))))))))...))))))))	43.3 °C
CGACGTGCACTATGTGCTG+CAGCACATCCAGCACGTCG ((((((((...((((((((+))))))))...))))))))	42.6 °C
CGACGTGCACTATGTGCTG+CAGCACATCCGGCACGTCG ((((((((...((((((((+))))))))...))))))))	43.2 °C
CGACGTGCACTATGTGCTG+CAGCACATCCTGCACGTCG (((((((((..((((((((+))))))))..)))))))))	44.9 °C
CGACGTGCACTATGTGCTG+CAGCACATCGAGCACGTCG ((((((((.(.((((((((+)))))))).).))))))))	46.7 °C
CGACGTGCACTATGTGCTG+CAGCACATCGTGCACGTCG ((((((((((.((((((((+)))))))).))))))))))	51.4 °C
CGACGTGCACTATGTGCTG+CAGCACATCTCGCACGTCG ((((((((...((((((((+))))))))...))))))))	41.6 °C
CGACGTGCACTATGTGCTG+CAGCACATGAAGCACGTCG ((((((((...((((((((+))))))))...))))))))	45.9 °C
CGACGTGCACTATGTGCTG+CAGCACATGACGCACGTCG ((((((((...((((((((+))))))))...))))))))	44.6 °C
CGACGTGCACTATGTGCTG+CAGCACATGCAGCACGTCG ((((((((...((((((((+))))))))...))))))))	45.3 °C

From the array DNA melting data of Ke et al.
